Molecular target: T1, HCMV gH/gL complex expressed in U373 astrocytoma cells (Human cytomegalovirus (HHV-5), strain …, UniProt P12824;P16832)
T1 construct: Human cytomegalovirus envelope glycoprotein H (gH); Human cytomegalovirus envelope glycoprotein L (gL); The immunisation plasmid and the peptide array used TB40/E gH, but no strain is named for the U373 cells; also called gH/gL-dimer; U373-gH/gL
Assay: flow cytometry on cells; Competition of the anti-gH mAbs with MSL-109. The set-up for MSL-109 is not told. The competition assay in the methods uses fixed, permeabilised U373-gH/gL cells, AF647-labelled antibody plus unlabelled antibody, 4 °C, 1 h.
Details: one partner purified

B1: MSL-109 (antibody, V domains shown)
VH: EEQVLESGGGLVKPGGSLRLSCAASGFTFSPYSVFWVRQAPGKGLEWVSSINSDSTYKYYADSVKGRFTISRDNAENSIFLQMNSLRAEDTAVYYCARDRSYYAFSSGSLSDYYYGLDVWGQGTLVTVSS
VL: DIVMTQSPLSLSVTPGEPASISCRSSQSLLHTNGYNYLDWYVQKPGQSPQLLIYLASNRASGVPDRFSGSGSGTDFTLKISRVETEDVGVYYCMQALQIPRTFGQGTKVEIK
notes: Human IgG1 constant region from the pFuse vector (InvivoGen); Human kappa constant region from the pFuse vector (InvivoGen); Human IgG1 kappa; source: HEK-293, heavy and light chain co-transfected, purified from the cell supernatant
  binding result: binds
